According to article PMC8625570, “Selectivity Determinants of RHO GTPase Binding to IQGAPs” (International Journal of Molecular Sciences, 2021):

Key:
Conditions in all cases: both partners purified
[1] = target: T1, IQGAP2^C795 (C-terminal fragment of IQGAP2) (human, UniProt Q13576 780-1575); test: stopped-flow fluorescence spectrometry; association (kobs): 2 µM IQGAP1^C794 or IQGAP2^C795 mixed with 0.2 µM mGppNHp-bound RHO GTPase; 30 mM Tris-HCl pH 7.5, 10 mM K2HPO4/KH2PO4 pH 7.4, 2 mM MgCl2, 3 mM DTT, 25 °C
T1 construct: IQGAP2, aa 780-1575; also called IQGAP2^C975
T1 sequence (looked up): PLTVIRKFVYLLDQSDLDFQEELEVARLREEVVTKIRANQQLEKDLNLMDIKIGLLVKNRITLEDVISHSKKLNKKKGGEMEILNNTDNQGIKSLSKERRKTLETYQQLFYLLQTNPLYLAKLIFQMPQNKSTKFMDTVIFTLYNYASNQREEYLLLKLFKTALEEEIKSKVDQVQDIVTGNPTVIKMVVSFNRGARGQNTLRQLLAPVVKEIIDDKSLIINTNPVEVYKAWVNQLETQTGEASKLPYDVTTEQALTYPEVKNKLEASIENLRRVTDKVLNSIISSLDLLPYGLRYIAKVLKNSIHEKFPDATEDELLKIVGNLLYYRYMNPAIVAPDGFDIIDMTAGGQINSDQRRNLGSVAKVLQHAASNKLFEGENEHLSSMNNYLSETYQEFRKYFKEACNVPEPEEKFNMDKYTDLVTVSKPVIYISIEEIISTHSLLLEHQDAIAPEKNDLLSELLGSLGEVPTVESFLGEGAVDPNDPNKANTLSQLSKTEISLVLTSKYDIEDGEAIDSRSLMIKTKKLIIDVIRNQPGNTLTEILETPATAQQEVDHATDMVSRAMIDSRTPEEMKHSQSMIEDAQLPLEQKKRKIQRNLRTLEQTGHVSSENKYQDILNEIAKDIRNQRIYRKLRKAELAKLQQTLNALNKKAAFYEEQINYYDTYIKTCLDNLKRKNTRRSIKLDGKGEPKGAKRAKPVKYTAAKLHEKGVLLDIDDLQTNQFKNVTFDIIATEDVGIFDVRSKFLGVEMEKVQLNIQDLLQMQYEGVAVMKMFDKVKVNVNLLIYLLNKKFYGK

[2] = target: T2, IQGAP1^C794 (C-terminal half of human IQGAP1 with the GRD, RGCT and CT domains) (human, UniProt P46940 863-1657); test: stopped-flow fluorescence spectrometry; kon from 0.2 µM mGppNHp-bound RHO GTPase with 2-8 µM IQGAP1^C794; koff by displacing with 10 µM unlabeled RAC1-GppNHp from 2 µM IQGAP1^C794 with 0.2 µM GTPase; Kd calculated from the rate constants; 25 °C
T2 sequence (looked up): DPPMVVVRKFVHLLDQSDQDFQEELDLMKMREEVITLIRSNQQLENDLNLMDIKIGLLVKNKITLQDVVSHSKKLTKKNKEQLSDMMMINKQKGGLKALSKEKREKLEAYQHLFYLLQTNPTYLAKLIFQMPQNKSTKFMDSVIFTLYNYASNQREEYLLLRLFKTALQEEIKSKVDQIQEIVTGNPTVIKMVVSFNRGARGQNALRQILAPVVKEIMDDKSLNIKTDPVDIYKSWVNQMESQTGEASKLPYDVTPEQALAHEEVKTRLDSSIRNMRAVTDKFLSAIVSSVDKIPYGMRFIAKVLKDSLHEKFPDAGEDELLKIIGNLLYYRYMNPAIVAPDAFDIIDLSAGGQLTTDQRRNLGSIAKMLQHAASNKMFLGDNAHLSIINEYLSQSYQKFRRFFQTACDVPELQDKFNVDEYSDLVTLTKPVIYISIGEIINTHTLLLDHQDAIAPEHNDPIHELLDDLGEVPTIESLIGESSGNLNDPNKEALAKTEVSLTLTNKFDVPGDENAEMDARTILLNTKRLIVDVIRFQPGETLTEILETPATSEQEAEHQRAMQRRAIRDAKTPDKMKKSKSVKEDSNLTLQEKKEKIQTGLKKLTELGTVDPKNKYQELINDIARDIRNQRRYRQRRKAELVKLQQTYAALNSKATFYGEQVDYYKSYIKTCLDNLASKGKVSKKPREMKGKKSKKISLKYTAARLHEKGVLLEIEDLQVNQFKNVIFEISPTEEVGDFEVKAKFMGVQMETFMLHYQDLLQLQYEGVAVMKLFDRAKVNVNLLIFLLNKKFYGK

[3] = target: CDC42^Q61L•GppNHp (human, UniProt P60953 1-178, Q61L); test: SEC; analytical SEC of IQGAP1 GRD with CDC42^Q61L•GppNHp or CDC42^WT•GppNHp
[4] = target: CDC42 (aa 1-178) (human, UniProt P60953 1-178); test: as above
[5] = target: RAC1 (aa 1-179) (human, UniProt P63000 1-179); test: stopped-flow fluorescence spectrometry; competition: 4 µM IQGAP1^C794 premixed with 40 µM RAC-binding protein (10-fold molar excess), mixed 1:1 with 0.4 µM RAC1•mGppNHp; 25 °C

Sequence of CDC42 (aa 1-178) (P60953 1-178): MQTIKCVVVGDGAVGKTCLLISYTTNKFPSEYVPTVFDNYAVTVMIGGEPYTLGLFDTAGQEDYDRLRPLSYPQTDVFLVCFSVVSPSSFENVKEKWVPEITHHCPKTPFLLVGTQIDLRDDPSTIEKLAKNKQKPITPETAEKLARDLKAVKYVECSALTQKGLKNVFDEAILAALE
Sequence of CDC42^Q61L•GppNHp (P60953 1-178 Q61L): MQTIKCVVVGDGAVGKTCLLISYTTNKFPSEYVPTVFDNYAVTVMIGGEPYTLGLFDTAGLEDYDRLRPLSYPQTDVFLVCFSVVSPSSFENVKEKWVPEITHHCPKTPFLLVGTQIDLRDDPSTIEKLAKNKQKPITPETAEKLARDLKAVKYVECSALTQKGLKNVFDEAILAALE

Row | Binder | binding result [2] | binding result [5] | further results
1 | RHOG (aa 1-178) (natural protein) not shown | binds |  | binding result [1]: binds
2 | IQGAP1^GRD (RASGAP-related domain of IQGAP1) (domain or fragment, human, UniProt P46940 962-1345, looked up) SKEKREKLEAYQHLFYLLQTNPTYLAKLIFQMPQNKSTKFMDSVIFTLYNYASNQREEYLLLRLFKTALQEEIKSKVDQIQEIVTGNPTVIKMVVSFNRGARGQNALRQILAPVVKEIMDDKSLNIKTDPVDIYKSWVNQMESQTGEASKLPYDVTPEQALAHEEVKTRLDSSIRNMRAVTDKFLSAIVSSVDKIPYGMRFIAKVLKDSLHEKFPDAGEDELLKIIGNLLYYRYMNPAIVAPDAFDIIDLSAGGQLTTDQRRNLGSIAKMLQHAASNKMFLGDNAHLSIINEYLSQSYQKFRRFFQTACDVPELQDKFNVDEYSDLVTLTKPVIYISIGEIINTHTLLLDHQDAIAPEHNDPIHELLDDLGEVPTIESLIGESS |  |  | stoichiometry N [3]: 2 CDC42^Q61L per GRD (printed as 2:1; order taken from p-0007); stoichiometry N [4]: 1 GRD per CDC42 (printed as 2:2)
3 | PAK1 GBD (GTPase-binding domain of PAK1) (domain or fragment) SILPGDKTNKKKEKERPEISLPSDFEHTIHVGFDAVTGEFTGMPEQWARLLQTSNITKSEQKKNPQAVLDVLEFYNSKKTSNSQK |  | binds | 
4 | DOCK2 DHR2 (DOCK homology region 2 domain of DOCK2) (domain or fragment, human DOCK2 DHR2 domain, aa 1211-1624; also called DOCK DHR2; source: pOPIN vector, purified; the methods say all proteins except IQGAP2^C795 were isolated as GST fusions with GST cleaved) YKDNNREEMYIRYLYKLRDLHLDCDNYTEAAYTLLLHTWLLKWSDEQCASQVMQTGQQHPQTHRQLKETLYETIIGYFDKGKMWEEAISLCKELAEQYEMEIFDYELLSQNLIQQAKFYESIMKILRPKPDYFAVGYYGQGFPSFLRNKVFIYRGKEYERREDFQMQLMTQFPNAEKMNTTSAPGDDVKNAPGQYIQCFTVQPVLDEHPRFKNKPVPDQIINFYKSNYVQRFHYSRPVRRGTVDPENEFASMWIERTSFVTAYKLPGILRWFEVVHMSQTTISPLENAIETMSTANEKILMMINQYQSDETLPINPLSMLLNGIVDPAVMGGFAKYEKAFFTEEYVRDHPEDQDKLTHLKDLIAWQIPFLGAGIKIHEKRVSDNLRPFHDRMEECFKNLKMKVEKEYGVREMPD |  | binds | 
5 | p50^GAP (GAP domain) (domain or fragment) HVKLEQLGIPRQVLKYDDFLKSTQKSPATAPKPMPPRPPLPNQQFGVSLQHLQEKNPEQEPIPIVLRETVAYLQAHALTTEGIFRRSANTQVVREVQQKYNMGLPVDFDQYNELHLPAVILKTFLRELPEPLLTFDLYPHVVGFLNIDESQRVPATLQVLQTLPEENYQVLRFLTAFLVQISAHSDQNKMTNTNLAVVFGPNLLWAKDAAITLKAINPINTFTKFLLDHQGELFPSPDPSGL |  | binds | 
6 | CDC42 T25K/N26D (natural protein) not shown | binds |  | 
7 | CDC42 Q74D (natural protein) not shown | binds |  | 
8 | CDC42 V85D/S88D (natural protein) not shown | binds |  | 
9 | RHOA-to-RAC1 variant (RHOA K27T, D28N, E47M, E54N, D76Q) (natural protein) not shown | binds |  | 
